Assay results: patent US20090022687A1, “Novel Pharmaceuticals That Use Anti-HLA Antibodies” (Chugai Seiyaku Kabushiki Kaisha, priority 2005, published 2009)

Key:
Assay in all cases: Cell surface expression analysis of HLA class I by flow cytometry
Assay type in all cases: binding, human
HLA class I on CEM cells = conditions: T-lymphoblastic cells, FITC-labeled mAb
Description: (§1) Reactivity of 2D7 mAb in tumor cell lines and myeloma cells derived from multiple myeloma patients were assessed by flow cytometry.
(§2) The tumor cell lines used were prepared as follows. The myeloma cell line RPMI 8226, B lymphoblastic cell lines (IM-9, Raji, H S-Sultan, and Daudi), the T lymphoblastic cell line CEM, the chronic myeloid leukemia cell line K562, the lung adenocarcinoma cell line A549, the colon adenocarcinoma cell line COLO 201, and the gastric adenocarcinoma cell line MKN-1 were obtained from the Health Science Resources Bank (Osaka, Japan). The myeloma cell line U266-B1, the B lymphoblastic cell line ARH-77, the T-lymphoblastic cell line Jurkat the breast cancer cell line MCF-7, the hepatocellular carcinoma HepG2, the clear cell renal cell carcinoma Caki-2, and the malignant melanoma MeWo were obtained from the American Type Culture Collection (Manassas, Va.). The EBV-transformed B-cell line YN was a gift from Dr. Yasuhiko Nishioka (The University of Tokushima). These cell lines were cultured in an RPM-1640 medium (Sigma-Aldrich, St. Louis, Mo.) supplemented with 10% fetal calf serum (Gibco BRL, Grand Island, N.Y.) and penicillin (100 U/mL) under a humidified atmosphere of 5% CO2 at 37° C.
(§3) Cell surface expression analysis of HLA class I by flow cytometry was performed as follows using FITC-labeled 2D7 mAb or FITC-labeled anti-HLA-ABC common region mAb (Chemicon, San Diego, Calif.). The cells (5×10^5 cells) were washed twice with PBS, and then incubated on ice for 40 minutes with FITC-labeled 2D7 mAb or FITC-labeled anti-HLA-ABC common region mAb. MM patient-derived BMMCs were incubated on ice for 15 minutes with 2% γ globulin diluted in PBS, and stained with FITC-labeled 2D7 mAb and PE-labeled anti-CD38 mAb (BD Bioscience, San Jose, Calif.) for myeloma cell gating. Next, the cells were washed twice with PBS, and analyzed using an EPICS XL flow cytometer (Beckman Coulter, Japan). In several experiments, the cells were stimulated for 48 hours with IFNα or IFNγ prior to HLA class I expression analysis. HLA class I expression levels were evaluated as GeoMFI using the CellQuest software (BID Biosciences).

[1] = system: HLA class I on HS-Sultan cells; conditions: B-lymphoblastic cells, FITC-labeled mAb
Description: as §1, §2, §3

[2] = system: HLA class I on U266 cells; conditions: U266, myeloma cells; FITC-labeled mAb
Description: as §1, §2, §3

[3] = system: HLA class I on A549 cells; conditions: A549, lung adenocarcinoma cells; FITC-labeled mAb
Description: as §1, §2, §3

[4] = system: HLA class I on RPMI 8226 cells; conditions: RPMI 8226, myeloma cells; FITC-labeled mAb
Description: as §1, §2, §3

[5] = system: HLA class I on HepG2 cells; conditions: HepG2, hepatocellular carcinoma; FITC-labeled mAb
Description: as §1, §2, §3

[6] = system: HLA class I on COLO 201 cells; conditions: COLO 201, colon adenocarcinoma cells; FITC-labeled mAb
Description: as §1, §2, §3

[7] = system: HLA class I on Jurkat cells; conditions: T-lymphoblastic cells, FITC-labeled mAb
Description: as §1, §2, §3

[8] = system: HLA class I on ARH77 cells; conditions: ARH77, B-lymphoblastic cells; FITC-labeled mAb
Description: as §1, §2, §3

[9] = system: HLA class I on MCF-7 cells; conditions: MCF-7, breast cancer cells; FITC-labeled mAb
Description: as §1, §2, §3

[10] = system: HLA class I on IM-9 cells; conditions: IM-9, B-lymphoblastic cells; FITC-labeled mAb
Description: as §1, §2, §3

[11] = system: HLA class I on MeWo cells; conditions: malignant melanoma, FITC-labeled mAb
Description: as §1, §2, §3

B1: 2D7: monoclonal antibody obtained by immunizing human myeloma cells; recognizes HLA class I (HLA-A) (antibody, V domains shown)
VH: QVQLQQSGPELVKPGASVKMSCKASGYTFTDYFIHWVKQRPGQGLEWIGWIFPGDDTTDYNEKFRGKTTLTADKSSSTAYILLSSLTSEDSAMYFCVRSDDFDYWGQGTTLTVSS
VL: QIVLTQSPAIMSASPGEKVTITCSASSSVSYMHWFQQKPGTFPKLWIYSTSNLASGVPTRFSGSGSGTSYSLTISRMEAEDAATYYCQQRTSYPPTFGSGTKLEIK
Expression (geometric mean fluorescence intensity) (HLA class I on CEM cells): 72
Expression (geometric mean fluorescence intensity) [1]: 285
Expression (geometric mean fluorescence intensity) [2]: 340
Expression (geometric mean fluorescence intensity) [3]: 37
Expression (geometric mean fluorescence intensity) [4]: 509
Expression (geometric mean fluorescence intensity) [5]: 33
Expression (geometric mean fluorescence intensity) [6]: 105
Expression (geometric mean fluorescence intensity) [7]: 111
Expression (geometric mean fluorescence intensity) [8]: 3727
Expression (geometric mean fluorescence intensity) [9]: 29
Expression (geometric mean fluorescence intensity) [10]: 662
Expression (geometric mean fluorescence intensity) [11]: 21
